Experimental data: patent US20250043302A1, “MUTATED HYDROXYPHENYLPYRUVATE DIOXYGENASE POLYPEPTIDE, AND CODING GENE AND USE THEREOF” (BEIJING DABEINONG BIOTECHNOLOGY CO., LTD., priority 2021, published 2025)

Experiments:
Assay type in all cases: in vivo
[1] = system: Arabidopsis thaliana T1 plants; assay: Topramezone tolerance of transgenic Arabidopsis thaliana T1 plants (spray, bleached leaf area grade, damage score); details: Table 10; for Classification and statistics of the grade of pesticide damage Grade 0: number of plants at grade 0; for Classification and statistics of the grade of pesticide damage Grade 1: number of plants at grade 1; for Classification and statistics of the grade of pesticide damage Grade 2: number of plants at grade 2; for Classification and statistics of the grade of pesticide damage Grade 3: number of plants at grade 3; for Scores: pesticide damage score
Procedure, shortened: (§1)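 Read-out: per-plant damage grade 0–3 from proportion of bleached leaf area at 7 DAT (1 <50%, 2 >50%, 3 100%). Plants were T1 transformants, glufosinate-selected, plus wild-type CK, sprayed 18 days post-sowing. Rates: topramezone 25–200, isoxaflutole 35–280, mesotrione 52.5–420 g ai/ha.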

[2] = system: Arabidopsis thaliana T1 plants; assay: Mesotrione tolerance of transgenic Arabidopsis thaliana T1 plants (spray, bleached leaf area grade, damage score); parameters: Scores: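 damage score 0-100 computed as Σ(N×S)/(T×M)×100 over grades 0-3 with higher meaning more damage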; details: Table 12; for Classification and statistics of the grade of pesticide damage Grade 0: number of plants at grade 0; for Classification and statistics of the grade of pesticide damage Grade 1: number of plants at grade 1; for Classification and statistics of the grade of pesticide damage Grade 2: number of plants at grade 2; for Classification and statistics of the grade of pesticide damage Grade 3: number of plants at grade 3; for Scores: pesticide damage score
Procedure, shortened: as §1

[3] = system: Arabidopsis thaliana T1 plants; assay: Isoxaflutole tolerance of transgenic Arabidopsis thaliana T1 plants (spray, bleached leaf area grade, damage score); details: Table 11; for Classification and statistics of the grade of pesticide damage Grade 0: number of plants at grade 0; for Classification and statistics of the grade of pesticide damage Grade 1: number of plants at grade 1; for Classification and statistics of the grade of pesticide damage Grade 2: number of plants at grade 2; for Classification and statistics of the grade of pesticide damage Grade 3: number of plants at grade 3; for Scores: pesticide damage score;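 on Scores: Weighted damage index from 0 to 100 where higher means more damage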
Procedure, shortened: as §1

B1: HPPDm-8-02: nucleotide sequence encoding AsHPPDm-A111T-K351N-F372A-F383W with mutated C-terminal; vector DBN11789 (nucleic acid)
DNA: ATGCCACCTACTCCAGCTACAGCTACTGGTGCTGCTGCTGCTGCCGTTACTCCTGAGCACGCTGCCAGGTCATTCCCCAGGGTGGTTCGCGTGAACCCCAGATCTGATAGGTTCCCAGTTCTGAGCTTCCACCATGTTGAGCTGTGGTGCGCTGATGCTGCTTCTGCTGCTGGCAGGTTCTCTTTCGCTCTTGGTGCTCCACTCGCTGCTAGATCTGATCTGTCTACAGGAAATAGCGCTCATGCCTCACTCCTGCTTCGCTCAGGTGCTTTGGCCTTCCTCTTCACCGCTCCATATGCTCCCCCACCTCAGGAGGCTGCTACTGCTGCTACTACAGCCTCCATTCCAAGCTTCTCAGCTGATGCCGCTAGAACCTTCGCTGCTGCTCATGGACTTGCCGTGAGGTCTGTTGGTGTTCGCGTGGCTGATGCTGCTGAGGCTTTCAGAGTTTCCGTTGCCGGCGGAGCTAGGCCAGCTTTCGCTCCTGCTGATTTGGGACATGGTTTCGGCCTGGCTGAGGTTGAGCTTTACGGTGACGTGGTTCTCCGCTTCGTGTCTTACCCAGATGAGACTGACCTGCCTTTCCTTCCCGGCTTCGAGAGAGTTTCCTCTCCTGGTGCCGTGGATTACGGCCTGACAAGGTTCGACCACGTGGTTGGAAACGTTCCCGAGATGGCTCCAGTGATCGATTACATGAAGGGCTTCCTTGGATTCCATGAGTTCGCCGAGTTCACTGCTGAGGACGTGGGAACCACTGAGTCCGGTTTGAACTCTGTGGTTCTCGCCAACAATTCTGAGGCTGTTTTGCTCCCTCTGAATGAGCCTGTGCATGGAACCAAGAGGAGAAGCCAGATTCAAACTTACCTGGAGTACCACGGTGGCCCTGGAGTTCAGCATATCGCCCTTGCTTCTAATGATGTGTTGCGCACACTCAGAGAGATGCGCGCCAGAACCCCCATGGGAGGTTTCGAGTTCATGGCCCCACCACAGGCTAAGTACTACGAGGGCGTTAGAAGGATTGCTGGAGACGTGTTGAGCGAGGAGCAGATCAATGAGTGCCAAGAGCTGGGTGTTCTTGTGGATAGGGATGACCAGGGCGTTCTGCTTCAAATTGCCACTAAGCCAGTGGGCGACCGCCCTACATTCTGGCTTGAGATGATTCAAAGAATCGGCTGCATGGAGAAGGATGAGGTTGGACAGGAGTACCAAAAGGGCGGATGCGGTGGCTTCGGAAAGGGTAACTTCAGCGAGTTGTTCAAGTCAATCGAGGAGTATGAGAAGACCTTGGAGGCCAAGCAGCTCGTGGGTTGA
modifications: mutated C-terminus; HPPDm-8-02 Nucleotide Sequence
notes: vector DBN11789
16: Classification and statistics of the grade of pesticide damage Grade 0 ([1]; topramezone 100 g ai/ha (4×)) | Classification and statistics of the grade of pesticide damage Grade 0 ([1]; topramezone 200 g ai/ha (8×)) | Classification and statistics of the grade of pesticide damage Grade 0 ([2]; mesotrione 210 g ai/ha (2×)) | Classification and statistics of the grade of pesticide damage Grade 0 ([2]; mesotrione 420 g ai/ha (4×)) | Classification and statistics of the grade of pesticide damage Grade 0 ([3]; isoxaflutole 140 g ai/ha (2×)) | Classification and statistics of the grade of pesticide damage Grade 0 ([3]; isoxaflutole 280 g ai/ha (4×))
0: Classification and statistics of the grade of pesticide damage Grade 1 ([1]; topramezone 100 g ai/ha (4×)) | Classification and statistics of the grade of pesticide damage Grade 2 ([1]; topramezone 100 g ai/ha (4×)) | Classification and statistics of the grade of pesticide damage Grade 3 ([1]; topramezone 100 g ai/ha (4×)) | Scores ([1]; topramezone 100 g ai/ha (4×)) | Classification and statistics of the grade of pesticide damage Grade 1 ([1]; topramezone 200 g ai/ha (8×)) | Classification and statistics of the grade of pesticide damage Grade 2 ([1]; topramezone 200 g ai/ha (8×)) | Classification and statistics of the grade of pesticide damage Grade 3 ([1]; topramezone 200 g ai/ha (8×)) | Scores ([1]; topramezone 200 g ai/ha (8×)) | Classification and statistics of the grade of pesticide damage Grade 1 ([2]; mesotrione 210 g ai/ha (2×)) | Classification and statistics of the grade of pesticide damage Grade 2 ([2]; mesotrione 210 g ai/ha (2×)) | Classification and statistics of the grade of pesticide damage Grade 3 ([2]; mesotrione 210 g ai/ha (2×)) | Scores ([2]; mesotrione 210 g ai/ha (2×)) | Classification and statistics of the grade of pesticide damage Grade 1 ([2]; mesotrione 420 g ai/ha (4×)) | Classification and statistics of the grade of pesticide damage Grade 2 ([2]; mesotrione 420 g ai/ha (4×)) | Classification and statistics of the grade of pesticide damage Grade 3 ([2]; mesotrione 420 g ai/ha (4×)) | Scores ([2]; mesotrione 420 g ai/ha (4×)) | Classification and statistics of the grade of pesticide damage Grade 1 ([3]; isoxaflutole 140 g ai/ha (2×)) | Classification and statistics of the grade of pesticide damage Grade 2 ([3]; isoxaflutole 140 g ai/ha (2×)) | Classification and statistics of the grade of pesticide damage Grade 3 ([3]; isoxaflutole 140 g ai/ha (2×)) | Scores ([3]; isoxaflutole 140 g ai/ha (2×)) | Classification and statistics of the grade of pesticide damage Grade 1 ([3]; isoxaflutole 280 g ai/ha (4×)) | Classification and statistics of the grade of pesticide damage Grade 2 ([3]; isoxaflutole 280 g ai/ha (4×)) | Classification and statistics of the grade of pesticide damage Grade 3 ([3]; isoxaflutole 280 g ai/ha (4×)) | Scores ([3]; isoxaflutole 280 g ai/ha (4×))
Highly resistant: Resistance evaluation ([1]; topramezone 100 g ai/ha (4×)) | Resistance evaluation ([1]; topramezone 200 g ai/ha (8×)) | Resistance evaluation ([2]; mesotrione 210 g ai/ha (2×)) | Resistance evaluation ([2]; mesotrione 420 g ai/ha (4×)) | Resistance evaluation ([3]; isoxaflutole 140 g ai/ha (2×)) | Resistance evaluation ([3]; isoxaflutole 280 g ai/ha (4×))
